# Laboratory results reported in patent US20030144495, “Drosophila recombination-associated protein and methods for use” (Albert Einstein College of Medicine of Yeshiva University, published 2003).
# Target: RecA (Escherichia coli, UniProt P0A7G6 P0A7G6:2-353)
# Experiment: EMSA; gel shift in presence of ATP-gamma-S, 20 mM Tris pH 7.35, 10 mM MgCl2, 37 C
# Conditions: tags: commercial, Promega/Pharmacia/USB; label: 5'-32P
# Procedure: Any oligonucleotide may be used for this assay. For this experiment, an oligonucleotide (33-mer) derived from the central portion of the pUC19 poly linker 5′-[…]-3′ [SEQ ID NO: 20] was endlabeled at the 5′ end with ³²P-ATP using T4 polynucleotide kinase. The oligonucleotide was purified on Qiaquick columns using buffer PN (Qiagen) and the OD at 260 nm indicated a concentration of 5 ng/μl. Any oligonucleotide sequence may be used in this experiment. The SEQ ID NO: 16 oligonucleotide was incubated with 60 ng of DRAP or RecA in various buffers for 30 minutes at 37° C. A loading buffer was added and the material separated on a 6% 1×TAE, polyacrylamide minigel at 250 V for 14 minutes. The gel was dried and exposed to film with one intensifying screen for ˜16 hrs. at −80° C. No degradation of the oligonucleotide was observed. (FIG. 8.) Gel shifting with RecA in the presence of […] is consistent with the known properties of that protein.
# RecA, sequence (P0A7G6 2-353, one chain of several): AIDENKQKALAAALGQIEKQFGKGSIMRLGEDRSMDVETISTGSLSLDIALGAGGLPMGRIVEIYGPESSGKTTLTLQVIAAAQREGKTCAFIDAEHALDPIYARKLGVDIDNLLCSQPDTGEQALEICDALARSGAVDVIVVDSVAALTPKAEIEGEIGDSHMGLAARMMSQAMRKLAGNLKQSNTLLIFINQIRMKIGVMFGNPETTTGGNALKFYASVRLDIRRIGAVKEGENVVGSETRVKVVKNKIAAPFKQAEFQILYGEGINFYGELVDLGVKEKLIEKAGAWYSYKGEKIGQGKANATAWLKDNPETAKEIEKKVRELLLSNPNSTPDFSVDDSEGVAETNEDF
binder,measurement,value
GGTACCCGGGGATCCTCTAGAGTCGACCTGCAG (ssDNA) [pUC19 polylinker 33-mer],binding result,binds
